Data published in patent publication US20190177366A1 (published 2019).
Values belong to the binder of their own block, whether it stands above or below them. Bridge positions count the residues as written; N and C are the ends.

Target: T1, His-tagged, full-length PCSK9 (human, UniProt A8T644 31-152; Q8NBP7 153-692)
T1 construct: Target protein of the PCSK9/EGF(A) TR-FRET assay (10 nM); also called His-PCSK9; proprotein convertase subtilisin/kexin type 9
Test: TR-FRET competition; competitor EGF(A)-Fc on His-PCSK9

T1 sequence (A8T644 31-152 limits assumed, chain 1 of 2): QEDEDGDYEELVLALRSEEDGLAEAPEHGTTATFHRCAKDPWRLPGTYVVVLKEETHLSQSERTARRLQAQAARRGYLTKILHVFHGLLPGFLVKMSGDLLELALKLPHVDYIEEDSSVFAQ
T1 sequence (A8T644 other isoform, or with tags, fused parts or gaps limits assumed, chain 2 of 2): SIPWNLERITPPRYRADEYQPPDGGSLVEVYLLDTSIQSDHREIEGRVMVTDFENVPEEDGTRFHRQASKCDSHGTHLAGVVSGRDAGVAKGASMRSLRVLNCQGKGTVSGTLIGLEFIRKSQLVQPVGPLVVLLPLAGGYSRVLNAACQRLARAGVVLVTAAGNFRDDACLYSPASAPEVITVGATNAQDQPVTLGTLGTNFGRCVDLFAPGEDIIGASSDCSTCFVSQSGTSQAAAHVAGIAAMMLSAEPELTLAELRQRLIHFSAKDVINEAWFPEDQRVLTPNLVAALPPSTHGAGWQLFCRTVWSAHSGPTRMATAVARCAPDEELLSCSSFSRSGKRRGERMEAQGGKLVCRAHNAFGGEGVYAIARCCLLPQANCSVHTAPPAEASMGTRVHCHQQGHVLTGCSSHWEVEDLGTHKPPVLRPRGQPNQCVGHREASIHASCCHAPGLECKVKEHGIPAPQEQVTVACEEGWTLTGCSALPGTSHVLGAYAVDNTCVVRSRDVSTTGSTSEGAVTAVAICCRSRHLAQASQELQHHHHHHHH

B1: Compound 70 (peptide)
peptide: Ac-CRLPWNLQRIALPC-NH2
modifications: disulfide 1-14
SMILES: CC[C@H](C)[C@@H]1NC(=O)[C@H](CCCNC(=N)N)NC(=O)[C@H](CCC(N)=O)NC(=O)[C@H](CC(C)C)NC(=O)[C@H](CC(N)=O)NC(=O)[C@H](Cc2c[nH]c3ccccc23)NC(=O)[C@@H]2CCCN2C(=O)[C@H](CC(C)C)NC(=O)[C@H](CCCNC(=N)N)NC(=O)[C@@H](NC(C)=O)CSSC[C@@H](C(N)=O)NC(=O)[C@@H]2CCCN2C(=O)[C@H](CC(C)C)NC(=O)[C@H](C)NC1=O
IC50: > 50 µM

B2: Compound 73 (peptide)
peptide: Ac-CRLPWNLARIGLPC-NH2
modifications: disulfide 1-14
SMILES: CC[C@H](C)[C@@H]1NC(=O)[C@H](CCCNC(=N)N)NC(=O)[C@H](C)NC(=O)[C@H](CC(C)C)NC(=O)[C@H](CC(N)=O)NC(=O)[C@H](Cc2c[nH]c3ccccc23)NC(=O)[C@@H]2CCCN2C(=O)[C@H](CC(C)C)NC(=O)[C@H](CCCNC(=N)N)NC(=O)[C@@H](NC(C)=O)CSSC[C@@H](C(N)=O)NC(=O)[C@@H]2CCCN2C(=O)[C@H](CC(C)C)NC(=O)CNC1=O
IC50: > 50 µM

B3: Compound 74 (peptide)
peptide: Ac-CRLPWNAQRIGLPC-NH2
modifications: disulfide 1-14
SMILES: CC[C@H](C)[C@@H]1NC(=O)[C@H](CCCNC(=N)N)NC(=O)[C@H](CCC(N)=O)NC(=O)[C@H](C)NC(=O)[C@H](CC(N)=O)NC(=O)[C@H](Cc2c[nH]c3ccccc23)NC(=O)[C@@H]2CCCN2C(=O)[C@H](CC(C)C)NC(=O)[C@H](CCCNC(=N)N)NC(=O)[C@@H](NC(C)=O)CSSC[C@@H](C(N)=O)NC(=O)[C@@H]2CCCN2C(=O)[C@H](CC(C)C)NC(=O)CNC1=O
IC50: > 50 µM

B7: Compound 75 (peptide)
peptide: Ac-CRLPWALQRIGLPC-NH2
modifications: disulfide 1-14
SMILES: CC[C@H](C)[C@@H]1NC(=O)[C@H](CCCNC(=N)N)NC(=O)[C@H](CCC(N)=O)NC(=O)[C@H](CC(C)C)NC(=O)[C@H](C)NC(=O)[C@H](Cc2c[nH]c3ccccc23)NC(=O)[C@@H]2CCCN2C(=O)[C@H](CC(C)C)NC(=O)[C@H](CCCNC(=N)N)NC(=O)[C@@H](NC(C)=O)CSSC[C@@H](C(N)=O)NC(=O)[C@@H]2CCCN2C(=O)[C@H](CC(C)C)NC(=O)CNC1=O
IC50: > 50 µM

B10: Compound 72 (peptide)
peptide: Ac-CRLPWNLQAIGLPC-NH2
modifications: disulfide 1-14
SMILES: CC[C@H](C)[C@@H]1NC(=O)[C@H](C)NC(=O)[C@H](CCC(N)=O)NC(=O)[C@H](CC(C)C)NC(=O)[C@H](CC(N)=O)NC(=O)[C@H](Cc2c[nH]c3ccccc23)NC(=O)[C@@H]2CCCN2C(=O)[C@H](CC(C)C)NC(=O)[C@H](CCCNC(=N)N)NC(=O)[C@@H](NC(C)=O)CSSC[C@@H](C(N)=O)NC(=O)[C@@H]2CCCN2C(=O)[C@H](CC(C)C)NC(=O)CNC1=O
IC50: > 50 µM

B11: Compound 71 (peptide)
peptide: Ac-CRLPWNLQRAGLPC-NH2
modifications: disulfide 1-14
SMILES: CC(=O)N[C@H]1CSSC[C@@H](C(N)=O)NC(=O)[C@@H]2CCCN2C(=O)[C@H](CC(C)C)NC(=O)CNC(=O)[C@H](C)NC(=O)[C@H](CCCNC(=N)N)NC(=O)[C@H](CCC(N)=O)NC(=O)[C@H](CC(C)C)NC(=O)[C@H](CC(N)=O)NC(=O)[C@H](Cc2c[nH]c3ccccc23)NC(=O)[C@@H]2CCCN2C(=O)[C@H](CC(C)C)NC(=O)[C@H](CCCNC(=N)N)NC1=O
IC50: > 50 µM

Results, then the binder that gave them:

IC50: > 50 µM
B4: Compound 77 (peptide)
peptide: Ac-CRLAWNLQRIGLPC-NH2
modifications: disulfide 1-14
SMILES: CC[C@H](C)[C@@H]1NC(=O)[C@H](CCCNC(=N)N)NC(=O)[C@H](CCC(N)=O)NC(=O)[C@H](CC(C)C)NC(=O)[C@H](CC(N)=O)NC(=O)[C@H](Cc2c[nH]c3ccccc23)NC(=O)[C@H](C)NC(=O)[C@H](CC(C)C)NC(=O)[C@H](CCCNC(=N)N)NC(=O)[C@@H](NC(C)=O)CSSC[C@@H](C(N)=O)NC(=O)[C@@H]2CCCN2C(=O)[C@H](CC(C)C)NC(=O)CNC1=O

IC50: > 50 µM
B5: Compound 78 (peptide)
peptide: Ac-CRAPWNLQRIGLPC-NH2
modifications: disulfide 1-14
SMILES: CC[C@H](C)[C@@H]1NC(=O)[C@H](CCCNC(=N)N)NC(=O)[C@H](CCC(N)=O)NC(=O)[C@H](CC(C)C)NC(=O)[C@H](CC(N)=O)NC(=O)[C@H](Cc2c[nH]c3ccccc23)NC(=O)[C@@H]2CCCN2C(=O)[C@H](C)NC(=O)[C@H](CCCNC(=N)N)NC(=O)[C@@H](NC(C)=O)CSSC[C@@H](C(N)=O)NC(=O)[C@@H]2CCCN2C(=O)[C@H](CC(C)C)NC(=O)CNC1=O

IC50: > 50 µM
B6: Compound 79 (peptide)
peptide: Ac-CALPWNLQRIGLPC-NH2
modifications: disulfide 1-14
SMILES: CC[C@H](C)[C@@H]1NC(=O)[C@H](CCCNC(=N)N)NC(=O)[C@H](CCC(N)=O)NC(=O)[C@H](CC(C)C)NC(=O)[C@H](CC(N)=O)NC(=O)[C@H](Cc2c[nH]c3ccccc23)NC(=O)[C@@H]2CCCN2C(=O)[C@H](CC(C)C)NC(=O)[C@H](C)NC(=O)[C@@H](NC(C)=O)CSSC[C@@H](C(N)=O)NC(=O)[C@@H]2CCCN2C(=O)[C@H](CC(C)C)NC(=O)CNC1=O

IC50: > 50 µM
B8: Compound 81 (peptide)
peptide: Ac-CRLPWNLQRIGGGC-NH2
modifications: disulfide 1-14
SMILES: CC[C@H](C)[C@@H]1NC(=O)[C@H](CCCNC(=N)N)NC(=O)[C@H](CCC(N)=O)NC(=O)[C@H](CC(C)C)NC(=O)[C@H](CC(N)=O)NC(=O)[C@H](Cc2c[nH]c3ccccc23)NC(=O)[C@@H]2CCCN2C(=O)[C@H](CC(C)C)NC(=O)[C@H](CCCNC(=N)N)NC(=O)[C@@H](NC(C)=O)CSSC[C@@H](C(N)=O)NC(=O)CNC(=O)CNC(=O)CNC1=O

IC50: > 50 µM
B9: Compound 76 (peptide)
peptide: Ac-CRLPANLQRIGLPC-NH2
modifications: disulfide 1-14
SMILES: CC[C@H](C)[C@@H]1NC(=O)[C@H](CCCNC(=N)N)NC(=O)[C@H](CCC(N)=O)NC(=O)[C@H](CC(C)C)NC(=O)[C@H](CC(N)=O)NC(=O)[C@H](C)NC(=O)[C@@H]2CCCN2C(=O)[C@H](CC(C)C)NC(=O)[C@H](CCCNC(=N)N)NC(=O)[C@@H](NC(C)=O)CSSC[C@@H](C(N)=O)NC(=O)[C@@H]2CCCN2C(=O)[C@H](CC(C)C)NC(=O)CNC1=O

IC50: > 50 µM
B12: Compound 80 (peptide)
peptide: Ac-CRLPWNLQRIGLGC-NH2
modifications: disulfide 1-14
SMILES: CC[C@H](C)[C@@H]1NC(=O)[C@H](CCCNC(=N)N)NC(=O)[C@H](CCC(N)=O)NC(=O)[C@H](CC(C)C)NC(=O)[C@H](CC(N)=O)NC(=O)[C@H](Cc2c[nH]c3ccccc23)NC(=O)[C@@H]2CCCN2C(=O)[C@H](CC(C)C)NC(=O)[C@H](CCCNC(=N)N)NC(=O)[C@@H](NC(C)=O)CSSC[C@@H](C(N)=O)NC(=O)CNC(=O)[C@H](CC(C)C)NC(=O)CNC1=O
